Patent US9328334B2, “Luciferase derived from lucidina accensa” (OLYMPUS CORPORATION, priority 2011, dated 2016)

Tested on: HeLa cell
Test: Luminescence intensity of luciferase expressed in HeLa cell, comparison with P. pyralis luciferase (Example 3)
Assay type: cell-based
Conditions: 2 mM D-luciferin, 25° C., 90 min after starting measurement
Protocol: Each of the wild type luciferase derived from L. accensa, the mutant luciferase derived from L. accensa (N50D and 1530R), and the luciferase derived from P. pyralis (SEQ ID NO: 33) was expressed in a HeLa cell, and the luminescence intensity was measured and compared to each other.
Further, since the pF9A vector contains the luciferase gene derived from Renilla reniformis as an internal control, it is possible to obtain the luminescence intensity from the luminescent gene inserted to the multicloning site as a ratio compared to the luminescence intensity emitted by the Renilla luciferase.
Three types of plasmids obtained in such a manner described above were each subjected to gene transfection to a HeLa cell, which has been inoculated in a 24-well plate, by a lipofection method, and 24 hours later, the cells were washed with PBS. To each well of a 24-well plate, 500 μL of 2 mM D-luciferin/CO2 Independent Medium (manufactured by Invitrogen) was added and the luminescence intensity was measured for 90 min by using a Luminescensor (manufactured by ATTO Corporation) under the condition including 25° C. and 1 sec per each well. The luminescence intensity which is obtained at the time point of 90 min after starting the measurement was taken as the luminescence intensity of the wild type luciferase, the mutant luciferase, and P. pyralis luciferase. […] Subsequently, 500 μL of 10 μM coelenterazine/CO2 Independent Medium was added to each well and the luminescence intensity was measured for 30 min by using a Luminescensor under the condition including 25° C. and 1 sec per each well. The luminescence intensity obtained at five minutes after the addition of coelenterazine was taken as luminescence intensity of the Renilla luciferase, which is an internal control. Each of the luminescence intensity from the wild type luciferase, the mutant luciferase, and P. pyralis luciferase was divided by the luminescence intensity of the Renilla luciferase, and the results are illustrated as a graph illustrating the luminescence intensity of each luciferase.

Molecule | luminescence intensity (divided by luminescence intensity of Renilla luciferase internal control)
mutant luciferase (N50D and I530R): L. accensa luciferase mutant with N50D and I530R, amino acid sequence SEQ ID NO: 2 (protein, listed as Lucidina accensa) MEEDKNILRGPAPFYPLEDGTAGEQLHRAMKRYALIPGTIAFTDAHAGVDITYSEYFEMACRLAESLKRYGLGLQHRIVVCSENSLQFFMPVVGALFIGVGVAPANDIYNERELLNSMTISQPTLVFCSRKGLQKILNVQKKLPVIQKIIILDTKEDYMGFQSMYSFVDSQLPVGFNEYDYVPDSFDRDQATALIMNSSGSTGLPKGVELNHTSVCVRFSHCRDPVYGNQIIPDTAILSVIPFHHGFGMFTTLGYLICGFRVVLMYRFEEELFLRSLQDYKIQSALLVPTLFSFFAKSTLIDKYDLSNLHEIASGGAPLAKEVGEAVAKRFNLRGIRQGYGLTETTSAVIITPEGDDKPGAVGKVVPFFSAKVVDLDTGKTLGVNQRGELCLKGPMIMKGYVNNPEATNALIDKDGWLHSGDISYWDEDGHFFIVDRLKSLIKYKGYQVPPAELESILLQHPFIFDAGVAGIPDDEAGELPAAVVVLEEGKTMTEKEIMDYVAGQVTTAKRLRGGVVFVDEVPKGLTGKRDARKIREILVKVKKTKSKL | 26.5
P. pyralis luciferase: existing luciferase derived from Photinus pyralis (SEQ ID NO: 33) (protein, listed as Photinus pyralis) MEDAKNIKKGPAPFYPLEDGTAGEQLHKAMKRYALVPGTIAFTDAHIEVDITYAEYFEMSVRLAEAMKRYGLNTNHRIVVCSENSLQFFMPVLGALFIGVAVAPANDIYNERELLNSMGISQPTVVFVSKKGLQKILNVQKKLPIIQKIIIMDSKTDYQGFQSMYTFVTSHLPPGFNEYDFVPESFDRDKTIALIMNSSGSTGLPKGVALPHRTACVRFSHARDPIFGNQIIPDTAILSVVPFHHGFGMFTTLGYLICGFRVVLMYRFEEELFLRSLQDYKIQSALLVPTLFSFFAKSTLIDKYDLSNLHEIASGGAPLSKEVGEAVAKRFHLPGIRQGYGLTETTSAILITPEGDDKPGAVGKVVPFFEAKVVDLDTGKTLGVNQRGELCVRGPMIMSGYVNNPEATNALIDKDGWLHSGDIAYWDEDEHFFIVDRLKSLIKYKGYQVAPAELESILLQHPNIFDAGVAGLPDDDAGELPAAVVVLEHGKTMTEKEIVDYVASQVTTAKKLRGGVVFVDEVPKGLTGKLDARKIREILIKAKKGGKIAV | 6.6
